± gives the standard deviation of the averaged measurements.
Tests used:
hTERT-HMEC = assay: percentage of EdU-negative (G0-arrested) nuclei per well, 72 h; higher = more G0 arrest; conditions: reference: sequence is the full UniProt precursor, the tested protein was the secreted form or ectodomain
MCF7 = assay: as above; conditions: reference: sequence is the full UniProt precursor, the tested protein was the secreted form or ectodomain
[1] = protein concentration 0.0225 µM
[2] = protein concentration 0.03125 µM
[3] = protein concentration 0.3125 µM
[4] = protein concentration 0.023015 µM
[5] = protein concentration 0.23015 µM
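Note: secreted proteins added to cultured cells, EdU pulse at the end, nuclei found by Hoechst imaging, EdU status from nuclear versus surrounding ring intensity ratio, PBS as neutral control.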

Row | Sequence | percentage of EdU-negative (hTERT-HMEC; [1]) | percentage of EdU-negative (hTERT-HMEC; protein concentration 0.225 µM) | percentage of EdU-negative (MCF7; [1]) | percentage of EdU-negative (MCF7; protein concentration 0.225 µM) | further results
1 | MKWMVVVLVCLQLLEAAVVKVPLKKFKSIRETMKEKGLLGEFLRTHKYDPAWKYRFGDLSVTYEPMAYMDAAYFGEISIGTPPQNFLVLFDTGSSNLWVPSVYCQSQACTSHSRFNPSESSTYSTNGQTFSLQYGSGSLTGFFGYDTLTVQSIQVPNQEFGLSENEPGTNFVYAQFDGIMGLAYPALSVDEATTAMQGMVQEGALTSPVFSVYLSNQQGSSGGAVVFGGVDSSLYTGQIYWAPVTQELYWQIGIEEFLIGGQASGWCSEGCQAIVDTGTSLLTVPQQYMSALLQATGAQEDEYGQFLVNCNSIQNLPSLTFIINGVEFPLPPSSYILSNNGYCTVGVEPTYLSSQNGQPLWILGDVFLRSYYSVYDLGNNRVGFATAA | 4.89 ± 0.11% | 6.1 ± 0.73% | 24.38 ± 0.12% | 23.4 ± 0.35% | –
2 | MKYLRHRRPNATLILAIGAFTLLLFSLLVSPPTCKVQEQPPAIPEALAWPTPPTRPAPAPCHANTSMVTHPDFATQPQHVQNFLLYRHCRHFPLLQDVPPSKCAQPVFLLLVIKSSPSNYVRRELLRRTWGRERKVRGLQLRLLFLVGTASNPHEARKVNRLLELEAQTHGDILQWDFHDSFFNLTLKQVLFLQWQETRCANASFVLNGDDDVFAHTDNMVFYLQDHDPGRHLFVGQLIQNVGPIRAFWSKYYVPEVVTQNERYPPYCGGGGFLLSRFTAAALRRAAHVLDIFPIDDVFLGMCLELEGLKPASHSGIRTSGVRAPSQRLSSFDPCFYRDLLLVHRFLPYEMLLMWDALNQPNLTCGNQTQIY [Q9Y2A9] | 4.326 ± 0.034% | 7.879 ± 0.065% | 25.7 ± 2% | 30.2 ± 0.85% | –
3 | MKYTSYILAFQLCIVLGSLGCYCQDPYVKEAENLKKYFNAGHSDVADNGTLFLGILKNWKEESDRKIMQSQIVSFYFKLFKNFKDDQSIQKSVETIKEDMNVKFFNSNKKKRDDFEKLTNYSVTDLNVQRKAIHELIQVMAELSPAAKTGKRKRSQMLFRGRRASQ | – | – | – | – | percentage of EdU-negative (hTERT-HMEC; [2]): 92.2 ± 1.5%; percentage of EdU-negative (hTERT-HMEC; [3]): 96.92 ± 0.62%; percentage of EdU-negative (MCF7; [2]): 39.5 ± 2.2%; percentage of EdU-negative (MCF7; [3]): 42.7 ± 1.8%
4 | MLALLAASVALAVAAGAQDSPAPGSRFVCTALPPEAVHAGCPLPAMPMQGGAQSPEEELRAAVLQLRETVVQQKETLGAQREAIRELTGKLARCEGLAGGKARGAGATGKDTMGDLPRDPGHVVEQLSRSLQTLKDRLESLEHQLRANVSNAGLPGDFREVLQQRLGELERQLLRKVAELEDEKSLLHNETSAHRQKTESTLNALLQRVTELERGNSAFKSPDAFKVSLPLRTNYLYGKIKKTLPELYAFTICLWLRSSASPGIGTPFSYAVPGQANEIVLIEWGNNPIELLINDKVAQLPLFVSDGKWHHICVTWTTRDGMWEAFQDGEKLGTGENLAPWHPIKPGGVLILGQEQDTVGGRFDATQAFVGELSQFNIWDRVLRAQEIVNIANCSTNMPGNIIPWVDNNVDVFGGASKWPVETCEERLLDL | 5.346 ± 0.033% | 6.28 ± 1.3% | 24.1 ± 0.47% | 24.8 ± 0.78% | –
5 | MLALLCSCLLLAAGASDAWTGEDSAEPNSDSAEWIRDMYAKVTEIWQEVMQRRDDDGALHAACQVQPSATLDAAQPRVTGVVLFRQLAPRAKLDAFFALEGFPTEPNSSSRAIHVHQFGDLSQGCESTGPHYNPLAVPHPQHPGDFGNFAVRDGSLWRYRAGLAASLAGPHSIVGRAVVVHAGEDDLGRGGNQASVENGNAGRRLACCVVGVCGPGLWERQAREHSERKKRRRESECKAA | 7 ± 3.4% | 4.98 ± 0.59% | 23.8 ± 1% | 27 ± 0.74% | –
6 | MLALLVLVTVALASAHHGGEHFEGEKVFRVNVEDENHINIIRELASTTQIDFWKPDSVTQIKPHSTVDFRVKAEDTVTVENVLKQNELQYKVLISNLRNVVEAQFDSRVRATGHSYEKYNKWETIEAWTQQVATENPALISRSVIGTTFEGRAIYLLKVGKAGQNKPAIFMDCGFHAREWISPAFCQWFVREAVRTYGREIQVTELLDKLDFYVLPVLNIDGYIYTWTKSRFWRKTRSTHTGSSCIGTDPNRNFDAGWCEIGASRNPCDETYCGPAAESEKETKALADFIRNKLSSIKAYLTIHSYSQMMIYPYSYAYKLGENNAELNALAKATVKELASLHGTKYTYGPGATTIYPAAGGSDDWAYDQGIRYSFTFELRDTGRYGFLLPESQIRATCEETFLAIKYVASYVLEHLY | 5.24 ± 0.55% | 5.32 ± 0.42% | 24.5 ± 1.1% | 25.4 ± 0.42% | –
7 | MLAPGSSPGQRGRLALQWRQVSWITCWIALYAVEALPTCPFSCKCDSRSLEVDCSGLGLTTVPPDVPAATRTLLLLNNKLSALPSWAFANLSSLQRLDLSNNFLDRLPRSIFGDLTNLTELQLRNNSIRTLDRDLLRHSPLLRHLDLSINGLAQLPPGLFDGLLALRSLSLRSNRLQNLDRLTFEPLANLQLLQVGDNPWECDCNLREFKHWMEWFSYRGGRLDQLACTLPKELRGKDMRMVPMEMFNYCSQLEDENSSAGLDIPGPPCTKASPEPAKPKPGAEPEPEPSTACPQKQRHRPASVRRAMGTVIIAGVVCGVVCIMMVVAAAYGCIYASLMAKYHRELKKRQPLMGDPEGEHEDQKQISSVA [Q8N967] | – | – | – | – | percentage of EdU-negative (hTERT-HMEC; [2]): 5.33 ± 1%; percentage of EdU-negative (hTERT-HMEC; [3]): 5.93 ± 0.73%; percentage of EdU-negative (MCF7; [2]): 25.5 ± 0.63%; percentage of EdU-negative (MCF7; [3]): 25.5 ± 2.5%
8 | MLAVGCALLAALLAAPGAALAPRRCPAQEVARGVLTSLPGDSVTLTCPGVEPEDNATVHWVLRKPAAGSHPSRWAGMGRRLLLRSVQLHDSGNYSCYRAGRPAGTVHLLVDVPPEEPQLSCFRKSPLSNVVCEWGPRSTPSLTTKAVLLVRKFQNSPAEDFQEPCQYSQESQKFSCQLAVPEGDSSFYIVSMCVASSVGSKFSKTQTFQGCGILQPDPPANITVTAVARNPRWLSVTWQDPHSWNSSFYRLRFELRYRAERSKTFTTWMVKDLQHHCVIHDAWSGLRHVVQLRAQEEFGQGEWSEWSPEAMGTPWTESRSPPAENEVSTPMQALTTNKDDDNILFRDSANATSLPVQDSSSVPLPTFLVAGGSLAFGTLLCIAIVLRFKKTWKLRALKEGKTSMHPPYSLGQLVPERPRPTPVLVPLISPPVSPSSLGSDNTSSHNRPDARDPRSPYDISNTDYFFPR | – | – | – | – | percentage of EdU-negative (hTERT-HMEC; [4]): 5.6 ± 1.1%; percentage of EdU-negative (hTERT-HMEC; [5]): 5.05 ± 0.44%; percentage of EdU-negative (MCF7; [4]): 25.4 ± 3%; percentage of EdU-negative (MCF7; [5]): 24.4 ± 1.3%
